# Laboratory results published in patent publication US20260335397A1, “TREATMENT OF GEOGRAPHIC ATROPHY” (Apellis Pharmaceuticals, Inc., priority 2022, published 2026).
# Tests used:
# [1] = Phase 3 safety: TEAEs and tolerability, OAKS and DERBY; assay type: in vivo, human; details: for Endophthalmitis (serious ocular TEAE), % / Endophthalmitis (serious ocular TEAE), M (number of events): infectious and non-infectious
# Method: All randomized subjects returned every month to the clinical site for assessments and additional pegcetacoplan or sham injections according to their randomization scheme until Month 12. From Month 12 onwards, subjects return to the clinical site based on their randomized treatment schedule (monthly or EOM) and follow the treatment regimen and assessments outlined in the Visit Schedule until Month 24. Safety was assessed throughout the study by a number of evaluations including: monitoring of AEs, preinjection and postinjection monitoring, blood and urine samples collected, physical examination, vital signs, and follow-up phone calls. Blood samples were also be collected for anti-therapeutic antibodies, genotyping, and clinical repository (if the subject consented to this portion).
# Safety endpoints included incidence and severity of ocular and systemic treatment-emergent adverse events; incidence of ADA directed against pegcetacoplan peptide or PEG; incidence of new active CNV in the study eye; incidence of new onset of subclinical CNV in the study eye; incidence of subjects who lost letters based on NL-BCVA categories (≥15, ≥15-<30, ≥30 ETDRS letters); change/shift from baseline in clinical labs and incidence of abnormal lab values; change from baseline in vital signs and incidence of abnormal vital sign results; shift from baseline in ocular examination assessments including slit-lamp examination and indirect ophthalmoscopy; change from baseline in Intra Ocular Pressure (IOP) and incidence of IOP above specified thresholds; and change/shift from baseline in ocular imaging assessments (including specular microscopy; select sites).
# The Safety set consisted of all subjects randomized who received at least one injection of pegcetacoplan or sham. Subjects were analyzed according to the actual treatment received. […] This population was used for all safety analyses.
# [2] = tested on: geographic atrophy (GA) secondary to age-related macular degeneration (AMD); test: Post-hoc SD-OCT analysis of PR and RPE loss, OAKS and DERBY studies; assay type: in vivo, human; details: 12 months; for RPE loss, difference EM vs EOM / PR loss, difference EM vs EOM: monthly vs every other month; for PR loss, difference EM vs. Sham Pooled / RPE loss, difference EM vs. Sham Pooled: monthly
# Description: (§1) LS means estimated from MMRM analysis. The mITT population was used for the analysis, defined as all randomized patients who received at least 1 injection of pegcetacoplan or sham and had baseline and at least one post-baseline value of GA lesion area in the study eye. FOV=field of view; LS=least square; M=month; mITT=modified intent-to-treat; MMRM=mixed-effects model for repeated measures; PEOM=pegcetacoplan every other month; PM=pegcetacoplan monthly; PR=photoreceptor; RPE=retinal pigment epithelium; SE=standard error.
# as §1, with “FOV-field” for “FOV=field”
# Spectral-domain optical coherence tomography (OCT) allows for cross sectional visualization of the neurosensory retina, including the photoreceptor (PR) layer, as well as the retinal pigment epithelium (RPE) and other retinal structures. […] A post-hoc analysis that assessed the ability of pegcetacoplan treatment to reduce PR and RPE loss in patients with GA was performed using SD-OCT images acquired from a subgroup of patients in the OAKS and DERBY studies, namely those for whom Spectralis SD-OCT images were available. Automated, deep learning based segmentation of RPE loss and PR thickness on SD-OCT volumes acquired at baseline and months 2, 4, 6, 8, 10, and 12 was performed according to previously published methods. The difference in the change from baseline of RPE loss area and of PR loss area (determined based on PR thickness measurements) was compared among the monthly, every other month, and pooled sham treatment arms using LS Mean MMRM modeling. […] The magnitude of the treatment effects at 12 months, as determined using LS mean MMRM modeling, are summarized below.
# [3] = DERBY, PEOM (N = 208), 24 months
# [4] = OAKS, PEOM (N = 212), 24 months
substance,measurement,setting,value
"Poly(oxy-1,2-ethanediyl), α-hydro-ω-hydroxy-, 15,15′-diester with N-acetyl-L-isoleucyl-L-cysteinyl-L-valyl-1-methyl-L-tryptophyl-L-glutaminyl-L-α-aspartyl-L-tryptophylglycyl-L-alanyl-L-histidyl-L-arginyl-L-cysteinyl-L-threonyl-2-[2-(2-aminoethoxy)ethoxy]acetyl-N^6-carboxy-L-lysinamide cyclic (2->12)-(disulfide) [pegcetacoplan]","All TEAEs, %",[1]; [3],(86.5%)
same,"Iridocyclitis (serious ocular TEAE), %",[1]; [3],0.5%
same,"Iridocyclitis (serious ocular TEAE), M (number of events)",[1]; [3],1 M
same,"Non-ocular TEAEs, patients, %",[1]; [3],(68.3%)
same,"Ocular TEAEs in study eye, patients, %",[1]; [3],(51.9%)
same,"Serious ocular TEAEs in the study eye, %",[1]; [3],1.0%
same,"Serious ocular TEAEs in the study eye, M (number of events)",[1]; [3],4 M
same,"Uveitis (serious ocular TEAE), %",[1]; [3],1.0%
same,"Uveitis (serious ocular TEAE), M (number of events)",[1]; [3],2 M
same,"Visual acuity reduced (serious ocular TEAE), %",[1]; [3],0.5%
same,"Visual acuity reduced (serious ocular TEAE), M (number of events)",[1]; [3],1 M
same,"All TEAEs, %","[1]; DERBY, PM (N = 206), 24 months",(86.4%)
same,"Non-ocular TEAEs, patients, %","[1]; DERBY, PM (N = 206), 24 months",(79.1%)
same,"Ocular TEAEs in study eye, patients, %","[1]; DERBY, PM (N = 206), 24 months",(60.7%)
same,"Optic ischemic neuropathy (serious ocular TEAE), %","[1]; DERBY, PM (N = 206), 24 months",0.5%
same,"Optic ischemic neuropathy (serious ocular TEAE), M (number of events)","[1]; DERBY, PM (N = 206), 24 months",1 M
same,"Retinal tear (serious ocular TEAE), %","[1]; DERBY, PM (N = 206), 24 months",0.5%
same,"Retinal tear (serious ocular TEAE), M (number of events)","[1]; DERBY, PM (N = 206), 24 months",1 M
same,"Serious ocular TEAEs in the study eye, %","[1]; DERBY, PM (N = 206), 24 months",1.9%
same,"Serious ocular TEAEs in the study eye, M (number of events)","[1]; DERBY, PM (N = 206), 24 months",4 M
same,"Vitritis (serious ocular TEAE), %","[1]; DERBY, PM (N = 206), 24 months",1.0%
same,"Vitritis (serious ocular TEAE), M (number of events)","[1]; DERBY, PM (N = 206), 24 months",2 M
same,"All TEAEs, %",[1]; [4],(88.2%)
same,"Non-ocular TEAEs, patients, %",[1]; [4],(77.8%)
same,"Ocular TEAEs in study eye, patients, %",[1]; [4],(58.0%)
same,"Retinal detachment (serious ocular TEAE), %",[1]; [4],0.5%
same,"Retinal detachment (serious ocular TEAE), M (number of events)",[1]; [4],1 M
same,"Serious ocular TEAEs in the study eye, %",[1]; [4],1.9%
same,"Serious ocular TEAEs in the study eye, M (number of events)",[1]; [4],4 M
same,"Endophthalmitis (serious ocular TEAE), %",[1]; [4],1.4%
same,"Endophthalmitis (serious ocular TEAE), M (number of events)",[1]; [4],3 M
same,"All TEAEs, %","[1]; OAKS, PM (N = 213), 24 months",(90.1%)
same,"Hyphema (serious ocular TEAE), %","[1]; OAKS, PM (N = 213), 24 months",0.5%
same,"Hyphema (serious ocular TEAE), M (number of events)","[1]; OAKS, PM (N = 213), 24 months",1 M
same,"Non-ocular TEAEs, patients, %","[1]; OAKS, PM (N = 213), 24 months",(81.7%)
same,"Ocular TEAEs in study eye, patients, %","[1]; OAKS, PM (N = 213), 24 months",(62.4%)
same,"Optic ischemic neuropathy (serious ocular TEAE), %","[1]; OAKS, PM (N = 213), 24 months",0.9%
same,"Optic ischemic neuropathy (serious ocular TEAE), M (number of events)","[1]; OAKS, PM (N = 213), 24 months",2 M
same,"Papilledema (serious ocular TEAE), %","[1]; OAKS, PM (N = 213), 24 months",0.5%
same,"Papilledema (serious ocular TEAE), M (number of events)","[1]; OAKS, PM (N = 213), 24 months",1 M
same,"Retinal detachment (serious ocular TEAE), %","[1]; OAKS, PM (N = 213), 24 months",0.5%
same,"Retinal detachment (serious ocular TEAE), M (number of events)","[1]; OAKS, PM (N = 213), 24 months",1 M
same,"Serious ocular TEAEs in the study eye, %","[1]; OAKS, PM (N = 213), 24 months",2.3%
same,"Serious ocular TEAEs in the study eye, M (number of events)","[1]; OAKS, PM (N = 213), 24 months",7 M
same,"Endophthalmitis (serious ocular TEAE), %","[1]; OAKS, PM (N = 213), 24 months",0.9%
same,"Endophthalmitis (serious ocular TEAE), M (number of events)","[1]; OAKS, PM (N = 213), 24 months",2 M
same,tolerability,[1]; both Phase 3 studies,well tolerated
same,PR loss and RPE loss compared with sham,"[2]; DERBY and OAKS, monthly and every other month",statistically significant reduction in PR loss and RPE loss at 12 months
same,"PR loss, difference every other month vs. Sham pooled","[2]; DERBY, every other month, p<0.0001",−61.0%
same,"RPE loss, difference every other month vs. Sham pooled","[2]; DERBY, every other month, p<0.0065",−20.4%
same,"RPE loss, difference EM vs EOM","[2]; DERBY, p=0.0103",−19.6%
same,"PR loss, difference EM vs EOM","[2]; DERBY, p=0.0785",−42%
same,"PR loss, difference EM vs. Sham Pooled","[2]; DERBY, p<0.0001",−77.4%
same,"RPE loss, difference EM vs. Sham Pooled","[2]; DERBY, p<0.0001",−36.0%
same,"PR Loss, difference EOM vs. Sham pooled","[2]; OAKS, every other month, p<0.0001",−47.7%
same,"RPE loss, difference every other month vs. Sham pooled","[2]; OAKS, every other month, p=0.0342",−14.8%
same,"PR loss, difference EM vs EOM","[2]; OAKS, p=0.0049",−51.3%
same,"RPE loss, difference EM vs EOM","[2]; OAKS, p=0.5282",−5.7%
same,"PR loss, difference EM vs. Sham Pooled","[2]; OAKS, p<0.0001",−74.5%
same,"RPE loss, difference EM vs. Sham Pooled","[2]; OAKS, p=0.0070",−19.7%
